Reference: paper PMC9879097, “Borrelia burgdorferi DnaA and the Nucleoid-Associated Protein EbfC Coordinate Expression of the dnaX-ebfC Operon”

How the values were obtained:
[1] = molecular target: T1, GST-DnaA (Borrelia burgdorferi, UniProt P33768 1-486); experiment: competition; ATP, Mg2+; 10x excess vs N1; 50 mM Tris-HCl (pH not stated), 50 mM KCl, 1 mM EDTA, 1 mM PMSF, 1 mM DTT, 0.01% Tween 20, 10% glycerol; room temperature 15 min; GST-DnaA reactions with 1 mM MgCl2 and 1 mM ATP or ADP; 100 nM DNA or 20 nM RNA probe; conditions: protein: recombinant; tags: N-terminal GST; blunt
T1 sequence: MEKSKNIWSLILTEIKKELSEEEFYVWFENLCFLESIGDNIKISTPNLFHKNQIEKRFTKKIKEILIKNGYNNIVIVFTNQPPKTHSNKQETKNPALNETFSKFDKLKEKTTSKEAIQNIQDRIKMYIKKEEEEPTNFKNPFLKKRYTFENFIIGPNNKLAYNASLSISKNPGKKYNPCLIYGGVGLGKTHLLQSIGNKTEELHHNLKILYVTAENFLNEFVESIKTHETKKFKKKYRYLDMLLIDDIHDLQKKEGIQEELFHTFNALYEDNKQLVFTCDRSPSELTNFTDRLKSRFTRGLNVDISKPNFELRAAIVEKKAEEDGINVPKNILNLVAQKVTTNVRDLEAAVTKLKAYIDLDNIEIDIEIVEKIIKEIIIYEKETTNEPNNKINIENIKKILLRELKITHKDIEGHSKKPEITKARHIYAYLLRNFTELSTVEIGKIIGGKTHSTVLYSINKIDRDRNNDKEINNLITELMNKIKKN

[2] = molecular target: T2, EbfC (Borrelia burgdorferi, UniProt O51418 1-99); experiment: competition; 50x excess vs N13; only smaller complex eliminated; 50 mM Tris-HCl (pH not stated), 50 mM KCl, 1 mM EDTA, 1 mM PMSF, 1 mM DTT, 0.01% Tween 20, 10% glycerol; room temperature 15 min; GST-DnaA reactions with 1 mM MgCl2 and 1 mM ATP or ADP; 100 nM DNA or 20 nM RNA probe; conditions: protein: recombinant; tags: N-terminal 6xHis (pET200); chain copies: 2
T2 sequence: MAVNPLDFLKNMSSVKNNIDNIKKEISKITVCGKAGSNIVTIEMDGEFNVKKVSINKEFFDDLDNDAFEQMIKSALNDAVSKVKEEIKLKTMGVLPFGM

[3] = molecular target: T2, EbfC; experiment: competition; 50x excess vs N13; 50 mM Tris-HCl (pH not stated), 50 mM KCl, 1 mM EDTA, 1 mM PMSF, 1 mM DTT, 0.01% Tween 20, 10% glycerol; room temperature 15 min; GST-DnaA reactions with 1 mM MgCl2 and 1 mM ATP or ADP; 100 nM DNA or 20 nM RNA probe; conditions: protein: recombinant; tags: N-terminal 6xHis (pET200); chain copies: 2
[4] = molecular target: T2, EbfC; experiment: EMSA; 5-15 uM EbfC; two complexes; 50 mM Tris-HCl (pH not stated), 50 mM KCl, 1 mM EDTA, 1 mM PMSF, 1 mM DTT, 0.01% Tween 20, 10% glycerol; room temperature 15 min; GST-DnaA reactions with 1 mM MgCl2 and 1 mM ATP or ADP; 100 nM DNA or 20 nM RNA probe; conditions: protein: recombinant; tags: N-terminal 6xHis (pET200); chain copies: 2; label: 5' Alexa Fluor 647 (probe)
[5] = molecular target: T2, EbfC; experiment: EMSA; poly(dI-dC) 2.5 ng/uL; 3.75-30 uM EbfC; 50 mM Tris-HCl (pH not stated), 50 mM KCl, 1 mM EDTA, 1 mM PMSF, 1 mM DTT, 0.01% Tween 20, 10% glycerol; room temperature 15 min; GST-DnaA reactions with 1 mM MgCl2 and 1 mM ATP or ADP; 100 nM DNA or 20 nM RNA probe; conditions: protein: recombinant; tags: N-terminal 6xHis (pET200); chain copies: 2; label: 5' IRDye800 on strand 1; blunt

B1: Competitor 3 (C3) (dsDNA)
DNA 1: TTCATAAAATTCTTTTAAAGTAATAGCTCTGAGATATAAATATGT
DNA 2: ACATATTTATATCTCAGAGCTATTACTTTAAAAGAATTTTATGAA
binding result [1]: binds

GGAUUUGUCUUUUUGUAACUUUCAAUUUUA (ssRNA) [unlabeled dnaX-ebfC RNA competitor]
binding result [2]: binds

B2: Competitor 2 (C2) (dsDNA)
DNA 1: GGATTTGTCTTTTTGTAACTTTCAATTTTATTATATTTTTTATGT
DNA 2: ACATAAAAAATATAATAAAATTGAAAGTTACAAAAAGACAAATCC
binding result [1]: binds

B3: Competitor 5 (C5) (dsDNA)
DNA 1: AAATGCAATGTTTTGCTTTATGTTAAGATATGGATTTGTCTTTTT
DNA 2: AAAAAGACAAATCCATATCTTAACATAAAGCAAAACATTGCATTT
binding result [1]: no binding

AGGCAAAAGGAUUUGCCAAAGUCAGAAAUU (ssRNA) [flaB RNA competitor]
binding result [3]: no binding

GGAUUUGUCUUUUUGUAACUUUCAAUUUUA (ssRNA) [EbfC RNA, dnaX-ebfC 5' UTR 30-mer]
binding result [4]: binds

B4: Competitor 6 (C6) (dsDNA)
DNA 1: TTTCAATTTTATTATATTTTTTATGTTTCATAAAATTCTTTTAAA
DNA 2: TTTAAAAGAATTTTATGAAACATAAAAAATATAATAAAATTGAAA
binding result [1]: no binding

B5: probe 2, consensus EbfC motif (dsDNA)
DNA 1: GGATTTGTCTTTTTGTAACTTTCAATTTTA
DNA 2: TAAAATTGAAAGTTACAAAAAGACAAATCC
binding result [5]: binds
